In patent US20150087577A1 (POLYPHOR, published 2015):
*1 amine or outer side, *2 acyl side, *3 side chain or, on linkers, in order; H or OH if unused. Bridges are numbered along the chain shown (N, C = ends). [ ]: non-standard residue; d: D form. (Pip)G = N-{3-[1'-(4'-methylpiperazinyl)]-propyl}-glycine, CN1CCN(CCCN(CC(=O)[*:2])[*:1])CC1; IsOrn = L-(N',N'-diisobutyl)-ornithine, CC(C)CN(CCC[C@H](N[*:1])C(=O)[*:2])CC(C)C; N(3-imidazol-1-ylpropyl)Gly = O=C(O)CNCCCn1ccnc1; Phe(4-F) = N[C@@H](Cc1ccc(F)cc1)C(=O)O; 2Nal = N[C@@H](Cc1ccc2ccccc2c1)C(=O)O; 4Pal = N[C@@H](Cc1ccncc1)C(=O)O; Cit = NC(=O)NCCC[C@H](N)C(=O)O; NMeK = CN[C@@H](CCCCN)C(=O)O; Orn = NCCC[C@H](N)C(=O)O; Sar = CNCC(=O)O

B1: Example 123 (peptide)
peptide: cyclo(YR[Cit]CRG[dP]RRWCY[Cit]K[dP]P)
modifications: disulfide 4-11
SMILES: N=C(N)NCCC[C@@H]1NC(=O)[C@@H]2CSSC[C@H](NC(=O)[C@H](Cc3c[nH]c4ccccc34)NC(=O)[C@H](CCCNC(=N)N)NC(=O)[C@H](CCCNC(=N)N)NC(=O)[C@H]3CCCN3C(=O)CNC1=O)C(=O)N[C@@H](Cc1ccc(O)cc1)C(=O)N[C@@H](CCCNC(N)=O)C(=O)N[C@@H](CCCCN)C(=O)N1CCC[C@@H]1C(=O)N1CCC[C@H]1C(=O)N[C@@H](Cc1ccc(O)cc1)C(=O)N[C@@H](CCCNC(=N)N)C(=O)N[C@@H](CCCNC(N)=O)C(=O)N2
B2: Example 129 (peptide)
peptide: cyclo(YR[Cit]CRG[dP]RR[2Nal]CY[Sar]K[dP]P)
modifications: disulfide 4-11
SMILES: CN1CC(=O)N[C@@H](CCCCN)C(=O)N2CCC[C@@H]2C(=O)N2CCC[C@H]2C(=O)N[C@@H](Cc2ccc(O)cc2)C(=O)N[C@@H](CCCNC(=N)N)C(=O)N[C@@H](CCCNC(N)=O)C(=O)N[C@H]2CSSC[C@H](NC(=O)[C@H](Cc3ccc4ccccc4c3)NC(=O)[C@H](CCCNC(=N)N)NC(=O)[C@H](CCCNC(=N)N)NC(=O)[C@H]3CCCN3C(=O)CNC(=O)[C@H](CCCNC(=N)N)NC2=O)C(=O)N[C@@H](Cc2ccc(O)cc2)C1=O
B3: Example 120 (peptide)
peptide: cyclo(YHTCRG[dP]RHWCYQK[dP]P)
modifications: disulfide 4-11
SMILES: C[C@@H](O)[C@@H]1NC(=O)[C@H](Cc2c[nH]cn2)NC(=O)[C@H](Cc2ccc(O)cc2)NC(=O)[C@@H]2CCCN2C(=O)[C@H]2CCCN2C(=O)[C@H](CCCCN)NC(=O)[C@H](CCC(N)=O)NC(=O)[C@H](Cc2ccc(O)cc2)NC(=O)[C@@H]2CSSC[C@H](NC1=O)C(=O)N[C@@H](CCCNC(=N)N)C(=O)NCC(=O)N1CCC[C@@H]1C(=O)N[C@@H](CCCNC(=N)N)C(=O)N[C@@H](Cc1c[nH]cn1)C(=O)N[C@@H](Cc1c[nH]c3ccccc13)C(=O)N2
B4: Example 127 (peptide)
peptide: cyclo(YR[Cit]CRG[dP]RR[2Nal]CY[Cit][NMeK][dP]P)
modifications: disulfide 4-11
SMILES: CN1C(=O)[C@H](CCCNC(N)=O)NC(=O)[C@H](Cc2ccc(O)cc2)NC(=O)[C@@H]2CSSC[C@H](NC(=O)[C@H](CCCNC(N)=O)NC(=O)[C@H](CCCNC(=N)N)NC(=O)[C@H](Cc3ccc(O)cc3)NC(=O)[C@@H]3CCCN3C(=O)[C@H]3CCCN3C(=O)[C@@H]1CCCCN)C(=O)N[C@@H](CCCNC(=N)N)C(=O)NCC(=O)N1CCC[C@@H]1C(=O)N[C@@H](CCCNC(=N)N)C(=O)N[C@@H](CCCNC(=N)N)C(=O)N[C@@H](Cc1ccc3ccccc3c1)C(=O)N2
B5: Example 23 (peptide)
peptide: cyclo(YR[Cit]FRF[dP]RR[2Nal]VY[Cit]K[dP]P)
SMILES: CC(C)[C@@H]1NC(=O)[C@H](Cc2ccc3ccccc3c2)NC(=O)[C@H](CCCNC(=N)N)NC(=O)[C@H](CCCNC(=N)N)NC(=O)[C@H]2CCCN2C(=O)[C@H](Cc2ccccc2)NC(=O)[C@H](CCCNC(=N)N)NC(=O)[C@H](Cc2ccccc2)NC(=O)[C@H](CCCNC(N)=O)NC(=O)[C@H](CCCNC(=N)N)NC(=O)[C@H](Cc2ccc(O)cc2)NC(=O)[C@@H]2CCCN2C(=O)[C@H]2CCCN2C(=O)[C@H](CCCCN)NC(=O)[C@H](CCCNC(N)=O)NC(=O)[C@H](Cc2ccc(O)cc2)NC1=O
B6: Example 128 (peptide)
peptide: cyclo(YR[Cit]CRG[dP]RRWCY[Cit]K[dP]P)
modifications: disulfide 4-11
SMILES: N=C(N)NCCC[C@@H]1NC(=O)[C@@H]2CSSC[C@H](NC(=O)[C@H](Cc3c[nH]c4ccccc34)NC(=O)[C@H](CCCNC(=N)N)NC(=O)[C@H](CCCNC(=N)N)NC(=O)[C@H]3CCCN3C(=O)CNC1=O)C(=O)N[C@@H](Cc1ccc(O)cc1)C(=O)N[C@@H](CCCNC(N)=O)C(=O)N[C@@H](CCCCN)C(=O)N1CCC[C@@H]1C(=O)N1CCC[C@H]1C(=O)N[C@@H](Cc1ccc(O)cc1)C(=O)N[C@@H](CCCNC(=N)N)C(=O)N[C@@H](CCCNC(N)=O)C(=O)N2
B7: Example 124 (peptide)
peptide: cyclo(YR[Cit]CRG[dP][IsOrn]R[2Nal]CY[Cit]K[dP]P)
modifications: disulfide 4-11
SMILES: CC(C)CN(CCC[C@@H]1NC(=O)[C@H]2CCCN2C(=O)CNC(=O)[C@H](CCCNC(=N)N)NC(=O)[C@@H]2CSSC[C@H](NC(=O)[C@H](Cc3ccc4ccccc4c3)NC(=O)[C@H](CCCNC(=N)N)NC1=O)C(=O)N[C@@H](Cc1ccc(O)cc1)C(=O)N[C@@H](CCCNC(N)=O)C(=O)N[C@@H](CCCCN)C(=O)N1CCC[C@@H]1C(=O)N1CCC[C@H]1C(=O)N[C@@H](Cc1ccc(O)cc1)C(=O)N[C@@H](CCCNC(=N)N)C(=O)N[C@@H](CCCNC(N)=O)C(=O)N2)CC(C)C
B8: Example 119 (peptide)
peptide: cyclo(Y[4Pal]TCRG[dP]RRWCYQK[dP]P)
modifications: disulfide 4-11
SMILES: C[C@@H](O)[C@@H]1NC(=O)[C@H](Cc2ccncc2)NC(=O)[C@H](Cc2ccc(O)cc2)NC(=O)[C@@H]2CCCN2C(=O)[C@H]2CCCN2C(=O)[C@H](CCCCN)NC(=O)[C@H](CCC(N)=O)NC(=O)[C@H](Cc2ccc(O)cc2)NC(=O)[C@@H]2CSSC[C@H](NC1=O)C(=O)N[C@@H](CCCNC(=N)N)C(=O)NCC(=O)N1CCC[C@@H]1C(=O)N[C@@H](CCCNC(=N)N)C(=O)N[C@@H](CCCNC(=N)N)C(=O)N[C@@H](Cc1c[nH]c3ccccc13)C(=O)N2
B9: Example 122 (peptide)
peptide: cyclo(YR[Cit]CRG[dP][Phe(4-F)]RWCY[Cit]K[dP]P)
modifications: disulfide 4-11
SMILES: N=C(N)NCCC[C@@H]1NC(=O)[C@@H]2CSSC[C@H](NC(=O)[C@H](Cc3c[nH]c4ccccc34)NC(=O)[C@H](CCCNC(=N)N)NC(=O)[C@H](Cc3ccc(F)cc3)NC(=O)[C@H]3CCCN3C(=O)CNC1=O)C(=O)N[C@@H](Cc1ccc(O)cc1)C(=O)N[C@@H](CCCNC(N)=O)C(=O)N[C@@H](CCCCN)C(=O)N1CCC[C@@H]1C(=O)N1CCC[C@H]1C(=O)N[C@@H](Cc1ccc(O)cc1)C(=O)N[C@@H](CCCNC(=N)N)C(=O)N[C@@H](CCCNC(N)=O)C(=O)N2
B10: Example 121 (peptide)
peptide: cyclo(YR[Cit]CRG[dP]RRWCY[Cit]Q[dP]P)
modifications: disulfide 4-11
SMILES: N=C(N)NCCC[C@@H]1NC(=O)[C@@H]2CSSC[C@H](NC(=O)[C@H](Cc3c[nH]c4ccccc34)NC(=O)[C@H](CCCNC(=N)N)NC(=O)[C@H](CCCNC(=N)N)NC(=O)[C@H]3CCCN3C(=O)CNC1=O)C(=O)N[C@@H](Cc1ccc(O)cc1)C(=O)N[C@@H](CCCNC(N)=O)C(=O)N[C@@H](CCC(N)=O)C(=O)N1CCC[C@@H]1C(=O)N1CCC[C@H]1C(=O)N[C@@H](Cc1ccc(O)cc1)C(=O)N[C@@H](CCCNC(=N)N)C(=O)N[C@@H](CCCNC(N)=O)C(=O)N2
B11: Example 125 (peptide)
peptide: cyclo(YR[Cit]CRG[dP][N(3-imidazol-1-ylpropyl)Gly]R[2Nal]CY[Cit]K[dP]P)
modifications: disulfide 4-11
SMILES: N=C(N)NCCC[C@@H]1NC(=O)CN(CCCn2ccnc2)C(=O)[C@H]2CCCN2C(=O)CNC(=O)[C@H](CCCNC(=N)N)NC(=O)[C@@H]2CSSC[C@H](NC(=O)[C@H](Cc3ccc4ccccc4c3)NC1=O)C(=O)N[C@@H](Cc1ccc(O)cc1)C(=O)N[C@@H](CCCNC(N)=O)C(=O)N[C@@H](CCCCN)C(=O)N1CCC[C@@H]1C(=O)N1CCC[C@H]1C(=O)N[C@@H](Cc1ccc(O)cc1)C(=O)N[C@@H](CCCNC(=N)N)C(=O)N[C@@H](CCCNC(N)=O)C(=O)N2
B12: Example 118 (peptide)
peptide: cyclo(YRTCRG[dP][4Pal]RWCYQK[dP]P)
modifications: disulfide 4-11
SMILES: C[C@@H](O)[C@@H]1NC(=O)[C@H](CCCNC(=N)N)NC(=O)[C@H](Cc2ccc(O)cc2)NC(=O)[C@@H]2CCCN2C(=O)[C@H]2CCCN2C(=O)[C@H](CCCCN)NC(=O)[C@H](CCC(N)=O)NC(=O)[C@H](Cc2ccc(O)cc2)NC(=O)[C@@H]2CSSC[C@H](NC1=O)C(=O)N[C@@H](CCCNC(=N)N)C(=O)NCC(=O)N1CCC[C@@H]1C(=O)N[C@@H](Cc1ccncc1)C(=O)N[C@@H](CCCNC(=N)N)C(=O)N[C@@H](Cc1c[nH]c3ccccc13)C(=O)N2
B13: Example 117 (peptide)
peptide: cyclo(YR[Cit]CRG[dP]R[Orn]WCY[Cit]K[dP]P)
modifications: disulfide 4-11
SMILES: N=C(N)NCCC[C@@H]1NC(=O)[C@@H]2CSSC[C@H](NC(=O)[C@H](Cc3c[nH]c4ccccc34)NC(=O)[C@H](CCCN)NC(=O)[C@H](CCCNC(=N)N)NC(=O)[C@H]3CCCN3C(=O)CNC1=O)C(=O)N[C@@H](Cc1ccc(O)cc1)C(=O)N[C@@H](CCCNC(N)=O)C(=O)N[C@@H](CCCCN)C(=O)N1CCC[C@@H]1C(=O)N1CCC[C@H]1C(=O)N[C@@H](Cc1ccc(O)cc1)C(=O)N[C@@H](CCCNC(=N)N)C(=O)N[C@@H](CCCNC(N)=O)C(=O)N2
B14: Example 126 (peptide)
peptide: cyclo(YR[Cit]CRG[dP]R[(Pip)G][2Nal]CY[Cit]K[dP]P)
modifications: disulfide 4-11
SMILES: CN1CCN(CCCN2CC(=O)N[C@@H](Cc3ccc4ccccc4c3)C(=O)N[C@H]3CSSC[C@H](NC(=O)[C@H](CCCNC(N)=O)NC(=O)[C@H](CCCNC(=N)N)NC(=O)[C@H](Cc4ccc(O)cc4)NC(=O)[C@@H]4CCCN4C(=O)[C@H]4CCCN4C(=O)[C@H](CCCCN)NC(=O)[C@H](CCCNC(N)=O)NC(=O)[C@H](Cc4ccc(O)cc4)NC3=O)C(=O)N[C@@H](CCCNC(=N)N)C(=O)NCC(=O)N3CCC[C@@H]3C(=O)N[C@@H](CCCNC(=N)N)C2=O)CC1

Target: human CXCR4 (human, UniProt P61073 1-352)
Sequence (P61073 whole entry): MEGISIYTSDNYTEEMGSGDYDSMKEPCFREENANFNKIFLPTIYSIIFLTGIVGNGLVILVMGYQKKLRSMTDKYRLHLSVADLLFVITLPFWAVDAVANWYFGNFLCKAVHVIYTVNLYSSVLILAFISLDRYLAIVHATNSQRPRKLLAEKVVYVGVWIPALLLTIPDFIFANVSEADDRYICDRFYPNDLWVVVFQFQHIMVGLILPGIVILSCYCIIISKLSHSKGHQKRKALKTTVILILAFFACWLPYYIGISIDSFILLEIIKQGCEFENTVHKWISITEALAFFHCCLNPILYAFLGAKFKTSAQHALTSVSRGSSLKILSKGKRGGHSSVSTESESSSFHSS
Test: cell-based or functional assay

Row | IC50 (nM) Ca2+ assay (method 2) [nM] | IC50 (nM) Ca2+ assay (method 1) [nM] | Binder
1 | 10 | – | B1
2 | 10.9 | – | B2
3 | 8.1 | – | B3
4 | 52.2 | – | B4
5 | – | 1550 | B5
6 | 4.5 | – | B6
7 | 5.9 | – | B7
8 | 9.4 | – | B8
9 | 8.8 | – | B9
10 | 6.5 | – | B10
11 | 330 | – | B11
12 | 7.6 | – | B12
13 | 3.4 | – | B13
14 | 19.5 | – | B14
